# Patent publication US8461305B2, “L-fucose α1→6 specific lectin” (J-Oil Mills, Inc., priority 2008, dated 2013)
# Columns and labels:
# [1] = hemagglutinating inhibition test with sugars (sugar binding specificity); type: cell-based
# Description: The sugar binding specificity of lectin also can be confirmed by using erythrocytes that can be specifically agglutinated by the lectin to investigate the sugar type that may inhibit the agglutination of the erythrocytes and the concentration thereof.
# Various monosaccharides, oligosaccharides, and polysaccharides shown in Table 2 and glycoproteins shown in Table 3 were subjected to hemagglutinating inhibition test to evaluate PTL of Example 1 and the SRL of Example 2 with regard to the sugar binding specificity.
# On a 96 well U-bottom microtiter plate, double dilution series of 10 μl of monosaccharide, oligosaccharide, polysaccharide, and glycoprotein solutions were prepared. Then, lectin solution adjusted in advance to have titer 4 was added in an amount of 10 μl to the respective wells. Then, the plate was subjected to a still-standing at a room temperature for one hour for sensitization. Then, 10 μl of 4%-red blood cell suspension was added to the respective wells and the plate was further subjected to a still-standing at a room temperature for one hour. […] The lowest concentration showing the inhibition was assumed as the minimum inhibition concentration. The lower the minimum inhibition concentration is, the higher the specificity to lectin is.
# For comparison, the sugar binding specificity was evaluated using the following commercially-available lectins: Comparison Example 1: AAL (SEIKAGAKU BIOBUSINESS CORPORATION—J-OIL MILLS, Inc.), Comparison Example 2: AOL (TOKYO CHEMICAL INDUSTRY CO., LTD.—Gekkeikan Sake Company, Ltd.), Comparison Example 3: LCA (SEIKAGAKU BIOBUSINESS CORPORATION—J-OIL MILLS, Inc.), and Comparison Example 4: PSA (SEIKAGAKU BIOBUSINESS CORPORATION—J-OIL MILLS, Inc.).
# [2] = frontal affinity chromatography (FAC), association constant to PA sugar chains having other L-fucose; type: binding; settings: 25 degrees C.
# Method: The following section will describe a method of calculating an association constant by frontal affinity chromatography (FAC). This method is based on the following principle. […] Then, the elution front end (front) is observed immediately. When there is an affinity with lectin, the elution of the sugar chain is delayed.
# The preparation of a lectin column used in the apparatus is performed in the method as described below. 1. Purified lectin is dissolved in 0.1 to 0.2M of NaHCO3 buffer solution (pH 8.3 to 8.5). 2. The lectin is immobilized, via a lectin primary amino group, a carrier such as NHS activated sepharose. 3. Then, the lectin is blocked by Tris buffer solution including primary amine or ethanolamine for example. 4. Lectin-sepharose is suspended in 10 mM Tris buffer, including 0.8% of NaCl (pH 7.4, TBS). Then, lectin immobilized resin is filled in a miniature column (φ2 mm×10 mm, 31.4 μl). 5. The miniature column in which the lectin immobilized resin is filled is protected by a holder and the lectin column is connected to an FAC automatic analysis apparatus (FAC-1, SHIMADZU CORPORATION).
# Then, the elution of the PA sugar chain from the column is detected by a fluorescence detector (excitation wavelength/fluorescence wavelength: 310 nm/380 nm).
# Based on the detection data, by using the elution front end (Vo) of the sugar chain (PA rhamnose) not interacting with lectin as a reference, the delay (V−Vo) of the elution front end (V) of a sugar chain interacting with lectin is calculated as an interaction strength. Then, based on the following FAC criteria expressions, the association constant (Ka) between the sugar chain and lectin is calculated based on V−Vo and Bt. If the interaction strength (V−Vo value) and the association constant are higher, a higher affinity is caused between lectin and an L-fucose α1→6 sugar chain.
# [In the formula, A means substance used for the elution, Ao means the initial concentration of the substance A, B means a immobilized ligand, V means the elution volume, Vo means the elution front end volume of the substance not interacting with the immobilized ligand B at all, Bt means an effective ligand amount, Kd means a dissociation constant (an inverse of the association constant)].
# Pyridylaminated (PA) sugar chains shown in FIG. 1 and FIG. 2 were used to frontal affinity chromatography (FAC) analysis. PA sugars were purchased from TAKARA BIO INC., SEIKAGAKU BIOBUSINESS CORPORATION, and Masuda Chemical Industries co., LTD. PA sugar were also obtained by pyridylaminating, by GlycoTAG®(TAKARA BIO INC.), an unlabeled sugar chain or a sugar chain obtained by subjecting a sugar chain to enzyme digestion for example.
# Lectin was dissolved in 0.2 M NaHCO3 buffer solution (pH 8.3) including 0.5 M NaCl and coupled to the NHS-activated sepharose (GE Healthcare Bioscience) by following the manufacturer's instructions. Then, lectin immobilized sepharose was suspended in 10 mM Tris buffer (pH 7.4, TBS) including […] and the resultant matter was filled in a miniature column (φ2 mm×10 mm, 31.4 μl).
# Frontal affinity chromatography was performed using FAC automatic analysis apparatus (FAC-1, SHIMADZU CORPORATION). In particular, the above-prepared lectin column was inserted to a stainless steel holder and the holder was connected to FAC-1 apparatus. The flow rate and the column temperature were maintained at 0.125 ml/min and 25 degrees C., respectively. After the miniature column was equilibrated by the TBS, an excessive volume (0.5 ml to 4 ml) of a PA sugar chain (3.75 nM or 7.5 nM) was continuously inputted to the column using an automatic sampling apparatus.
# The fluorescent strength of the eluate of the PA sugar (excitation wavelength of 310 nm and fluorescence wavelength of 380 nm) was monitored to measure the interaction strength [a difference of the front end eluate to the standard oligosaccharide (PA rhamnose): V−V0]. […]
# [3] = inhibitor: N-Acetylneuraminic acid
# [4] = inhibitor: N-acetylgalactosamine
# [5] = inhibitor: N-glycolylneuraminic acid
# [6] = Sugar chain No. 728 (as listed in Table 5/12)
Molecule,minimum inhibition concentration of hemagglutination ([1]; inhibitor: Fructose),minimum inhibition concentration of hemagglutination ([1]; inhibitor: Galactose),minimum inhibition concentration of hemagglutination ([1]; inhibitor: Glucose),minimum inhibition concentration of hemagglutination ([1]; inhibitor: L-fucose),minimum inhibition concentration of hemagglutination ([1]; inhibitor: Lactose),minimum inhibition concentration of hemagglutination ([1]; inhibitor: Maltose),minimum inhibition concentration of hemagglutination ([1]; inhibitor: Mannose),minimum inhibition concentration of hemagglutination ([1]; inhibitor: Melibiose),minimum inhibition concentration of hemagglutination ([1]; inhibitor: Metyl α-mannoside),"minimum inhibition concentration of hemagglutination [1, 3]","minimum inhibition concentration of hemagglutination [1, 4]",minimum inhibition concentration of hemagglutination ([1]; inhibitor: N-acetylglucosamine),"minimum inhibition concentration of hemagglutination [1, 5]",minimum inhibition concentration of hemagglutination ([1]; inhibitor: Raffinose),minimum inhibition concentration of hemagglutination ([1]; inhibitor: Rhamnose),minimum inhibition concentration of hemagglutination ([1]; inhibitor: Serial lactose),minimum inhibition concentration of hemagglutination ([1]; inhibitor: Sucrose),minimum inhibition concentration of hemagglutination ([1]; inhibitor: Xylose),association constant Ka ([2]; Sugar chain No. 419),association constant Ka ([2]; Sugar chain No. 420),other results
Aleuria aurantia lectin (protein) PTEFLYTSKIAAISWAATGGRQQRVYFQDLNGKIREAQRGGDNPWTGGSSQNVIGEAKLFSPLAAVTWKSAQGIQIRVYCVNKDNILSEFVYDGSKWITGQLGSVGVKVGSNSKLAALQWGGSESAPPNIRVYYQKSNGSGSSIHEYVWSGKWTAGASFGSTVPGTGIGATAIGPGRLRIYYQATDNKIREHCWDSNSWYVGGFSASASAGVSIAAISWGSTPNIRVYWQKGREELYEAAYGGSWNTPGQIKDASRPTPSLPDTFIAANSSGNIDISVFFQASGVSLQQWQWISGKGWSIGAVVPTGTPAGW,25 mM,>100 mM,>100 mM,0.391 mM,>6 mM,>100 mM,50 mM,>100 mM,>100 mM,>100 mM,>100 mM,>100 mM,>100 mM,>100 mM,>100 mM,>6 mM,>100 mM,>100 mM,<1000 M⁻¹,<1000 M⁻¹,"association constant Ka ([2]; Sugar chain No. 718): 65000 M⁻¹; association constant Ka ([2]; Sugar chain No. 719): <1000 M⁻¹; association constant Ka ([2]; Sugar chain No. 720): <1000 M⁻¹; association constant Ka ([2]; Sugar chain No. 721): <1000 M⁻¹; association constant Ka ([2]; Sugar chain No. 722): <1000 M⁻¹; association constant Ka ([2]; Sugar chain No. 723): 35000 M⁻¹; association constant Ka ([2]; Sugar chain No. 726): <1000 M⁻¹; association constant Ka ([2]; Sugar chain No. 727): 130000 M⁻¹; association constant Ka [2, 6]: <1000 M⁻¹; association constant Ka ([2]; Sugar chain No. 729): <1000 M⁻¹; association constant Ka ([2]; Sugar chain No. 730): <1000 M⁻¹; association constant Ka ([2]; Sugar chain No. 731): <1000 M⁻¹; association constant Ka ([2]; Sugar chain No. 739): <1000 M⁻¹; association constant Ka ([2]; Sugar chain No. 909): 310000 M⁻¹; association constant Ka ([2]; Sugar chain No. 910): 90000 M⁻¹; association constant Ka ([2]; Sugar chain No. 931): <1000 M⁻¹; association constant Ka ([2]; Sugar chain No. 932): <1000 M⁻¹; association constant Ka ([2]; Sugar chain No. 933): 210000 M⁻¹"
Lens culinaris agglutinin (protein) chain 1: TETTSFSITKFSPDQKNLIFQGDGYTTKGKLTLTKAVKSTVGRALYSTPIHIWDRDTGNVANFVTSFTFVIDAPSSYNVADEFTFFIAPVDTKPQTGGGYLGVFNSKEYDKTSQTVAVEFDTFYNAAWDPSNKERHIGIDVNSIKSVNTKSWNLQNGERANVVIAFNAATNVLTVTLTYP chain 2: VTSYTLNEVVPLKDVVPEWVRIGFSATTGAEFAAHEVHSWSFHSELGGTSSS,>100 mM,>100 mM,>100 mM,>100 mM,>6 mM,100 mM,50 mM,>100 mM,50 mM,>100 mM,>100 mM,>100 mM,>100 mM,>100 mM,>100 mM,>6 mM,>100 mM,>100 mM,<1000 M⁻¹,<1000 M⁻¹,"association constant Ka ([2]; Sugar chain No. 718): <1000 M⁻¹; association constant Ka ([2]; Sugar chain No. 719): <1000 M⁻¹; association constant Ka ([2]; Sugar chain No. 720): <1000 M⁻¹; association constant Ka ([2]; Sugar chain No. 721): <1000 M⁻¹; association constant Ka ([2]; Sugar chain No. 722): <1000 M⁻¹; association constant Ka ([2]; Sugar chain No. 723): <1000 M⁻¹; association constant Ka ([2]; Sugar chain No. 726): <1000 M⁻¹; association constant Ka ([2]; Sugar chain No. 727): <1000 M⁻¹; association constant Ka [2, 6]: <1000 M⁻¹; association constant Ka ([2]; Sugar chain No. 729): <1000 M⁻¹; association constant Ka ([2]; Sugar chain No. 730): <1000 M⁻¹; association constant Ka ([2]; Sugar chain No. 731): <1000 M⁻¹; association constant Ka ([2]; Sugar chain No. 739): <1000 M⁻¹; association constant Ka ([2]; Sugar chain No. 909): <1000 M⁻¹; association constant Ka ([2]; Sugar chain No. 910): <1000 M⁻¹; association constant Ka ([2]; Sugar chain No. 931): <1000 M⁻¹; association constant Ka ([2]; Sugar chain No. 932): <1000 M⁻¹; association constant Ka ([2]; Sugar chain No. 933): <1000 M⁻¹"
